Read-outs that look alike come from different tables or passages of the source. Blank lines part the entries; values can stand above or below the substance they belong to.
Tests used:
[1] = target: Pertuzumab kappa light chain S131R_V133G_S176R (L2), HA-tagged; assay: LCCA, SPR of light-chain tags
[2] = target: Pertuzumab kappa light chain S131K_V133G_S176R (L2), HA-tagged; assay: LCCA, SPR of light-chain tags
[3] = target: Pertuzumab kappa light chain S131R_V133G_S176R (L2), HA-tagged; assay: LCCA, SPR of light-chain tags; remark: listed apart in the source
[4] = target: Pertuzumab kappa light chain S131K_V133G_S176R (L2), HA-tagged; assay: LCCA, SPR of light-chain tags; remark: listed apart in the source
[5] = target: Pertuzumab kappa light chain S131R_V133G_S176R (L2), HA-tagged; assay: LCCA, SPR of light-chain tags; remark: listed apart in the source
[6] = target: Pertuzumab kappa light chain S131K_V133G_S176R (L2), HA-tagged; assay: LCCA, SPR of light-chain tags; remark: listed apart in the source
[7] = target: CAT-2200 lambda light chain V133D_Y178T; assay: LCCA, SPR
[8] = target: Pertuzumab kappa light chain S131K_S176A_T178S; assay: LCCA, SPR
[9] = target: Pertuzumab kappa light chain S131K_T178S; assay: LCCA, SPR
[10] = target: Pertuzumab kappa light chain S131K_S176A_T178S; assay: LCCA, SPR; remark: listed apart in the source
[11] = target: Pertuzumab kappa light chain S131K_T178S; assay: LCCA, SPR; remark: listed apart in the source
[12] = target: CAT-2200 lambda light chain E124Q_T131R; assay: LCCA, SPR
[13] = target: Pertuzumab kappa light chain V133G_L135W_S176D_T180E; assay: LCCA, SPR tag read-out
[14] = target: Pertuzumab kappa light chain V133G_S176D_T180E; assay: LCCA, SPR
[15] = target: CAT-2200 lambda light chain E124Q_T131R; assay: LCCA, SPR; remark: listed apart in the source
[16] = target: CAT-2200 lambda light chain E124Q_T131K; assay: LCCA, SPR
[17] = target: Pertuzumab kappa light chain V133G_S176D_T178E; assay: LCCA, SPR
[18] = target: Pertuzumab kappa light chain V133G_S176D_T180E; assay: LCCA, SPR; remark: listed apart in the source
[19] = target: Pertuzumab kappa light chain V133G_S176D_T178E; assay: LCCA, SPR; remark: listed apart in the source
[20] = target: Pertuzumab kappa light chain V133G_L135W_S176D_T180E; assay: LCCA, SPR tag read-out; remark: listed apart in the source
[21] = target: Pertuzumab kappa light chain V133A_S176K (L2), HA-tagged; assay: LCCA, SPR of light-chain tags
[22] = target: Pertuzumab kappa light chain V133G_S176R (L2), HA-tagged; assay: LCCA, SPR of light-chain tags
[23] = target: Pertuzumab kappa light chain V133A_S176K (L2), HA-tagged; assay: LCCA, SPR of light-chain tags; remark: listed apart in the source
[24] = target: Pertuzumab kappa light chain V133G_S176R (L2), HA-tagged; assay: LCCA, SPR of light-chain tags; remark: listed apart in the source
[25] = target: Pertuzumab kappa light chain S176A_T178A (L2), HA-tagged; assay: LCCA, SPR of light-chain tags
[26] = target: CAT-2200 lambda light chain S176A_Y178W (L1), FLAG-tagged; assay: LCCA, SPR of light-chain tags
[27] = target: Pertuzumab kappa light chain S131R_V133G_S176R_T178A (L2), HA-tagged; assay: LCCA, SPR of light-chain tags
[28] = target: Pertuzumab kappa light chain S131K_V133G_S176R_T178A (L2), HA-tagged; assay: LCCA, SPR of light-chain tags
[29] = target: Pertuzumab kappa light chain S131R_V133G_S176R_T178A (L2), HA-tagged; assay: LCCA, SPR of light-chain tags; remark: listed apart in the source
[30] = target: Pertuzumab kappa light chain S131K_V133G_S176R_T178A (L2), HA-tagged; assay: LCCA, SPR of light-chain tags; remark: listed apart in the source
[31] = target: CAT-2200 lambda light chain V133L_S176D_Y178E (L1), FLAG-tagged; assay: LCCA, SPR of light-chain tags
[32] = target: CAT-2200 lambda light chain S176E_Y178E (L1), FLAG-tagged; assay: LCCA, SPR of light-chain tags
[33] = target: CAT-2200 lambda light chain V133L_S176D_Y178E (L1), FLAG-tagged; assay: LCCA, SPR of light-chain tags; remark: listed apart in the source
[34] = target: CAT-2200 lambda light chain S176E_Y178E (L1), FLAG-tagged; assay: LCCA, SPR of light-chain tags; remark: listed apart in the source
[35] = target: Pertuzumab kappa light chain S176K_T178K (L2), HA-tagged; assay: LCCA, SPR of light-chain tags
[36] = target: Pertuzumab kappa light chain S176K_T178L (L2), HA-tagged; assay: LCCA, SPR of light-chain tags
[37] = target: Pertuzumab kappa light chain S176K_T178R (L2), HA-tagged; assay: LCCA, SPR of light-chain tags
[38] = target: Pertuzumab kappa light chain S176K_T178K (L2), HA-tagged; assay: LCCA, SPR of light-chain tags; remark: listed apart in the source
[39] = target: Pertuzumab kappa light chain S176K_T178R (L2), HA-tagged; assay: LCCA, SPR of light-chain tags; remark: listed apart in the source
[40] = target: Pertuzumab kappa light chain S176K_T178K (L2), HA-tagged; assay: LCCA, SPR of light-chain tags; remark: listed apart in the source
[41] = target: Pertuzumab kappa light chain S176K_T178L (L2), HA-tagged; assay: LCCA, SPR of light-chain tags; remark: listed apart in the source
[42] = target: Pertuzumab kappa light chain S176K_T178R (L2), HA-tagged; assay: LCCA, SPR of light-chain tags; remark: listed apart in the source
[43] = target: Pertuzumab kappa light chain S176K_T178K (L2), HA-tagged; assay: LCCA, SPR of light-chain tags; remark: listed apart in the source
[44] = target: Pertuzumab kappa light chain S176K_T178L (L2), HA-tagged; assay: LCCA, SPR of light-chain tags; remark: listed apart in the source
[45] = target: Pertuzumab kappa light chain S176K_T178R (L2), HA-tagged; assay: LCCA, SPR of light-chain tags; remark: listed apart in the source
[46] = target: Pertuzumab kappa light chain S176K_T178K (L2), HA-tagged; assay: LCCA, SPR of light-chain tags; remark: listed apart in the source
[47] = target: Pertuzumab kappa light chain S176K_T178L (L2), HA-tagged; assay: LCCA, SPR of light-chain tags; remark: listed apart in the source
[48] = target: Pertuzumab kappa light chain S176K_T178R (L2), HA-tagged; assay: LCCA, SPR of light-chain tags; remark: listed apart in the source

Substance: Pertuzumab Fab heavy chain L143T_S188D
H2L2:H2L1 normalized median ratio [7]: 46% | H2L2:H2L1 normalized median scalar value ln(r1/f1) [8]: 1.51 | H2L2:H2L1 normalized median scalar value ln(r1/f1) [9]: 0.84 | H2L2:H2L1 normalized median ratio [10]: 54% | H2L2:H2L1 normalized median scalar value ln(r1/f1) [10]: 0.15 | H2L2:H2L1 normalized median scalar value ln(r1/f1) [11]: -0.25

Substance: Pertuzumab Fab heavy chain L124E (H2)
H2L2:H2L1 normalized median scalar value ln(r1/f1) [21]: -0.15 | H2L2:H2L1 normalized median scalar value ln(r1/f1) [22]: 0.25 | H2L2:H2L1 normalized median scalar value ln(r1/f1) [23]: 1.69 | H2L2:H2L1 normalized median scalar value ln(r1/f1) [24]: 2.32

Substance: Pertuzumab Fab heavy chain S186L_S188W (H2)
H2L2:H2L1 normalized median ratio, H2L2 share [25]: 67% | H2L2:H2L1 normalized median scalar value ln(r1/f1) [25]: 0.7 | H2L2:H2L1 normalized median ratio (H2L1 share) [26]: 33%

Other lines, results leading:

H2L2:H2L1 normalized median scalar value ln(r1/f1) [1]: 2.51 | H2L2:H2L1 normalized median scalar value ln(r1/f1) [2]: 2.21 | H2L2:H2L1 normalized median scalar value ln(r1/f1) [3]: 2.42 | H2L2:H2L1 normalized median scalar value ln(r1/f1) [4]: 2.41 | H2L2:H2L1 normalized median scalar value ln(r1/f1) [5]: 2.85 | H2L2:H2L1 normalized median scalar value ln(r1/f1) [6]: 2.94
Substance: Pertuzumab Fab heavy chain L124E_K145T_Q179E (H2)

H2L2:H2L1 normalized median ratio [12]: 33% | H2L2:H2L1 median scalar value [13]: -0.52 ln(ratio) | H2L2:H2L1 normalized median ratio [14]: 72% | H2L2:H2L1 normalized median scalar value ln(r1/f1) [14]: 0.95 | H2L2:H2L1 normalized median ratio [15]: 27% | H2L2:H2L1 normalized median ratio [16]: 28% | H2L2:H2L1 normalized median scalar value ln(r1/f1) [17]: 0.77 | H2L2:H2L1 normalized median ratio [18]: 73% | H2L2:H2L1 normalized median scalar value ln(r1/f1) [18]: 0.97 | H2L2:H2L1 normalized median scalar value ln(r1/f1) [19]: 0.69 | H2L2:H2L1 median scalar value [20]: -0.41 ln(ratio)
Substance: Pertuzumab Fab heavy chain L124R_Q179K

H2L2:H2L1 normalized median ratio, H2L2 share [27]: 89% | H2L2:H2L1 normalized median scalar value ln(r1/f1) [27]: 2.13 | H2L2:H2L1 normalized median ratio, H2L2 share [28]: 85% | H2L2:H2L1 normalized median scalar value ln(r1/f1) [28]: 1.77 | H2L2:H2L1 normalized median ratio, H2L2 share [29]: 92% | H2L2:H2L1 normalized median scalar value ln(r1/f1) [29]: 2.4 | H2L2:H2L1 normalized median ratio, H2L2 share [30]: 88% | H2L2:H2L1 normalized median scalar value ln(r1/f1) [30]: 1.98 | H2L2:H2L1 normalized median ratio (H2L1 share) [31]: 12% | H2L2:H2L1 normalized median ratio (H2L1 share) [32]: 15% | H2L2:H2L1 normalized median ratio (H2L1 share) [33]: 8% | H2L2:H2L1 normalized median ratio (H2L1 share) [34]: 11%
Substance: Pertuzumab Fab heavy chain L124E_K145T_Q179E_S188W (H2)

H2L2:H2L1 normalized median scalar value ln(r1/f1) [35]: 1.95 | H2L2:H2L1 normalized median scalar value ln(r1/f1) [36]: 1.52 | H2L2:H2L1 normalized median scalar value ln(r1/f1) [37]: 1.9 | H2L2:H2L1 normalized median scalar value ln(r1/f1) [38]: 1.09 | H2L2:H2L1 normalized median scalar value ln(r1/f1) [39]: 1.75 | H2L2:H2L1 normalized median scalar value ln(r1/f1) [40]: 2.4 | H2L2:H2L1 normalized median scalar value ln(r1/f1) [41]: 2.11 | H2L2:H2L1 normalized median scalar value ln(r1/f1) [42]: 2.3 | H2L2:H2L1 normalized median scalar value ln(r1/f1) [43]: 1.93 | H2L2:H2L1 normalized median scalar value ln(r1/f1) [44]: 1.59 | H2L2:H2L1 normalized median scalar value ln(r1/f1) [45]: 1.59 | H2L2:H2L1 normalized median scalar value ln(r1/f1) [46]: 1.83 | H2L2:H2L1 normalized median scalar value ln(r1/f1) [47]: 2.29 | H2L2:H2L1 normalized median scalar value ln(r1/f1) [48]: 1.64
Substance: Pertuzumab Fab heavy chain K145T_V177D_S188D (H2)
